Results on one molecule are retold here after PMC4804166, “Different states of synaptotagmin regulate evoked versus spontaneous release” (Nature Communications, 2016).

For the assay, the target named is T1, preformed t-SNARE heterodimers (syntaxin 1A and SNAP-25B) in PS-free proteoliposomes (rat | mouse, UniProt P32851 1-288; P60879-1 1-206).
T1 construct: syntaxin-1A, rat, full-length cDNA; SNAP-25B, mouse; the sentence 'cDNA encoding full-length rat syntaxin-1A, mouse SNAP-25B and mouse synaptobrevin-2' is read as full length for all three; also called t-SNAREs; t-SNARE vesicles; source: pTrcHis vector, purified by the N-terminal His6-tag; reconstituted into PS-free vesicles
T1 sequence (P32851 whole entry, chain 1 of 2): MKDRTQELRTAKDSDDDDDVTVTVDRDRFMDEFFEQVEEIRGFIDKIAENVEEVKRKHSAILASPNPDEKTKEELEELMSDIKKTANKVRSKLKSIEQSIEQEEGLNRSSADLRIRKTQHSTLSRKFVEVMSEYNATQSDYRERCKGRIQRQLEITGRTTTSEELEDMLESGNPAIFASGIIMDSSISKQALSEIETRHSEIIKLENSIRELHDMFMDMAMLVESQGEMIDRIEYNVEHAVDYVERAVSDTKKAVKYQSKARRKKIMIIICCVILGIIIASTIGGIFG
T1 sequence (P60879 whole entry, chain 2 of 2): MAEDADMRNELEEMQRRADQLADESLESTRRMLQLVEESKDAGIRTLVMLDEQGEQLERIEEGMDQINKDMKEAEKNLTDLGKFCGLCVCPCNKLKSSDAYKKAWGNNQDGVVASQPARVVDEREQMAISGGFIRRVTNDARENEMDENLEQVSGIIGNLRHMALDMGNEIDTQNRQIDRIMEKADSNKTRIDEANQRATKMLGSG
Nature of the assay: co-flotation; 11 uM syt cytoplasmic domain mixed with 45 ul PS-free t-SNARE vesicles in 25 mM HEPES-KOH pH 7.4, 100 mM KCl, 10% glycerol, 1 mM dithiothreitol; 0.2 mM EGTA or 1 mM free Ca2+; RT 45 min; Accudenz gradient, 287,000g; SDS-PAGE, Coomassie blue, densitometry. The note with it: both partners purified.

B1: wild-type cytoplasmic domain of synaptotagmin 1 (residues 96-421) (domain or fragment, rat, UniProt P21707 96-421, looked up)
chain: GGKNAINMKDVKDLGKTMKDQALKDDDAETGLTDGEEKEEPKEEEKLGKLQYSLDYDFQNNQLLVGIIQAAELPALDMGGTSDPYVKVFLLPDKKKKFETKVHRKTLNPVFNEQFTFKVPYSELGGKTLVMAVYDFDRFSKHDIIGEFKVPMNTVDFGHVTEEWRDLQSAEKEEQEKLGDICFSLRYVPTAGKLTVVILEAKNLKKMDVGGLSDPYVKIHLMQNGKRLKKKKTTIKKNTLNPYYNESFSFEVPFEQIQKVQVVVTVLDYDKIGKNDAIGKVFVGYNSTGAELRHWSDMLANPRRPIAQWHTLQVEEEVDAMLAVKK
notes: synaptotagmin 1, rat, cytoplasmic domain with the tandem C2-domains C2A and C2B, residues 96-421; the D374 of the original cDNA was corrected to glycine; The native linker between C2A and C2B is residues 264-272, SAEKEEQEK; Residue 374 is glycine after correction of the cDNA; also called WT syt; syt
For B1, the binding result was “binds”.
